# According to patent publication US6312887:
# Molecular target: T1, STAT-1alpha wild type (transfected in U3A cells) (Homo sapiens) (UniProt P42224)
# T1 sequence: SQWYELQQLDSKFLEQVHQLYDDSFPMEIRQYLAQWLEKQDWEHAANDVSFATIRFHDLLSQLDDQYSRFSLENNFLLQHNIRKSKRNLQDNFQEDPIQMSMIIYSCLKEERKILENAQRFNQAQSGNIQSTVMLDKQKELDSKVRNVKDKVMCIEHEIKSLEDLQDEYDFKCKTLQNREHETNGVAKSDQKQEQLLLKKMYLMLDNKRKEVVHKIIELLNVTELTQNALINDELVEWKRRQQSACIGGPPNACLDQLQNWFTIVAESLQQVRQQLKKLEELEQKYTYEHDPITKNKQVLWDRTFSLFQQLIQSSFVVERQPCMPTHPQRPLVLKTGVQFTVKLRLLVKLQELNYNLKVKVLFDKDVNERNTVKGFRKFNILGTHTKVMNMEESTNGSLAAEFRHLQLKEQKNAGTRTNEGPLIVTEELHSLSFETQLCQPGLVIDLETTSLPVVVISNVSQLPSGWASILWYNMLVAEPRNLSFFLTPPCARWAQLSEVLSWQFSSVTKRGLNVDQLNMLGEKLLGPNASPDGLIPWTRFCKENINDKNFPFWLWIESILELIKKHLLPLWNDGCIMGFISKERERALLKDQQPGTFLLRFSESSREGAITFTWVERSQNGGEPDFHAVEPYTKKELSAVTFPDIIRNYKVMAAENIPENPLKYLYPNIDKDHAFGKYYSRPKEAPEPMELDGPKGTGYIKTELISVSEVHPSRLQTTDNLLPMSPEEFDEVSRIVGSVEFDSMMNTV
# Assay: cell_activity
# Details: luciferase reporter in U3A cells, IFN-gamma 5 ng/ml 10 h
sequence,measurement,value
GATCAGTTCCCGTCAATCNATGATCCAGTTCCCGTCAATGATCCCCGGGATC (double strand) [tandem weak c-fos STAT-1 sites reporter enhancer],activity (fold induction),2
